{"source": "patent US8809027B1", "about": "“Genetically modified organisms for increased microbial production of 3-hydroxypropionic acid involving an oxaloacetate alpha-decarboxylase” (OPX Biotechnologies, Inc., priority 2009, dated 2014)", "format_in_all_cases": "biochemical", "key": {"[1]": {"assay": "Coupled spectrophotometric assay of oxaloacetate alpha-decarboxylase activity (purified YdfG, NADPH absorbance at 340 nm)", "details": "for Average Specific Activity: oad variants versus native Oad in the spectrophotometric assay; for Fold Increase in oxaloacetate alpha-decarboxylase specific activity: relative to native (parent) Oad lacking mutations, in vitro", "procedure": "A coupled assay was developed in order to biochemically assess the oxaloacetate alpha-decarboxylase activity of the candidate enzymes. The coupled assay used exogenously-added purified E. coli YdfG protein, which converts malonate semialdehyde to 3-HP with the concomitant conversion of NADPH to NADP^+ (FIG. 5). […] 3-HP is also detectable by standard analytical methods, for example HPLC and GS-MS. Assays were performed as 200 microliter reactions in a 96-well plate format using a Molecular Dynamics SpectraMax 384 microplate reader with SoftmaxPro software (Molecular Dynamics, Sunnyvale Calif.) to quantitate the rate of change in the 340 nm absorbance. All assays were conducted at 37° C., and the instrument was allowed to mix the plate for 1 second prior to each measurements. The progress of each reaction was monitored for 20 minutes during which measurements were made every 20 seconds. Reaction conditions consisted of 50 mM PIPES pH 6.8 (unless otherwise stated), 2 mM thymidine pyrophosphate, 10 mM dithiothreitol, 4 mM magnesium chloride, 1 mM NADPH (EMD Bioscience), 0.075 mg/mL purified YdfG (Molecular Throughput), and 5 mM oxaloacetate (unless otherwise stated). All chemicals were obtained from Sigma-Aldrich (St. Louis, Mo.) unless otherwise stated. Reactions were initiated with the addition of 10 microliters of concentrated purified protein to each reaction well. In addition, a negative control was performed with each experimental set to control for the rate of background NADPH oxidation. Once the reaction time course was read and the slopes of each well were calculated, the specific activities over the negative control of each candidate protein were calculated. All values reported are the average specific activities measured in triplicate."}, "[2]": {"assay": "GC-MS analysis of 3-HP produced in the spectrophotometric assay samples", "procedure": "A coupled assay was developed in order to biochemically assess the oxaloacetate alpha-decarboxylase activity of the candidate enzymes. The coupled assay used exogenously-added purified E. coli YdfG protein, which converts malonate semialdehyde to 3-HP with the concomitant conversion of NADPH to NADP^+ (FIG. 5). […] 3-HP is also detectable by standard analytical methods, for example HPLC and GS-MS. Assays were performed as 200 microliter reactions in a 96-well plate format using a Molecular Dynamics SpectraMax 384 microplate reader with SoftmaxPro software (Molecular Dynamics, Sunnyvale Calif.) to quantitate the rate of change in the 340 nm absorbance. […] The progress of each reaction was monitored for 20 minutes during which measurements were made every 20 seconds. […] Once the reaction time course was read and the slopes of each well were calculated, the specific activities over the negative control of each candidate protein were calculated. All values reported are the average specific activities measured in triplicate.\nActivity of KGD was not measured by the spectrophotometric assay.\nConformation of 3-HP production as well as assessment of the pH dependence of each candidate enzyme was performed as described above, except that coupled reactions with YdfG were evaluated for 3-HP production by GC-MS. […]"}, "[3]": {"assay": "GC-MS confirmation of 3-HP production and pH dependence of candidate enzymes (coupled reaction with YdfG)", "details": "3-HP by GC-MS at pH 5.5, pH 6.0 and pH 6.8; 5 mM oxaloacetate; 37° C., at least 12 hours", "procedure": "Conformation of 3-HP production as well as assessment of the pH dependence of each candidate enzyme was performed as described above, except that coupled reactions with YdfG were evaluated for 3-HP production by GC-MS. Reaction conditions consisted of 50 mM PIPES pH 6.8, 2 mM thymidine pyrophosphate, 10 mM dithiothreitol, 4 mM magnesium chloride, 1 mM NADPH (EMD Bioscience), 0.075 mg/mL purified YdfG (Molecular Throughput), and 5 mM oxaloacetate (unless otherwise stated). All chemicals were obtained from Sigma-Aldrich unless otherwise stated. Reactions were performed at 0.6 mL volumes in triplicate and were initiated with the addition of 600 micrograms of purified protein. In addition, a negative control lacking protein was also performed with each set. Reactions were allowed to proceed at 37° C. for at least 12 hours. […] Soluble monomeric 3-HP is quantified using GC-MS after a single exaction with ethyl acetate from a reaction sample. […] A standard curve of known 3-HP concentrations is prepared at the beginning of the run and a known quantity of ketohexanoic acid (1 g/L) is added to both the standards and the samples to act as an internal standard for Quantitation, with tropic acid as an additional internal standard. […] 3-HP is quantified using a 3HP standard curve at the beginning of the run and the data are analyzed using HP Chemstation. […]"}}}
{"molecule": "Mutant Oad 1: variant of Leuconostoc mesenteroides oad with mutations N45T, R249L, D302G, V418A and L476Q (protein, Leuconostoc mesenteroides, variant of Leuconostoc mesenteroides oad with mutations N45T, R249L, D302G, V418A and L476Q) MTDTLTFNTKHLLEALFESGIRHFIVSPGSRSTPIALLLAEYAEQTNEIKLFVDVDERSAGFFALGIAKTLLEPVVLLGTSGTAIAEYMPAVAEAYAANIPLVVLSTDRPQELQFNGAPQTIPQSNLFGQLTKQAVLIRLQDMHSDVTEYIDFIVQKVVNLSITAPRGPIQINLPLRKPLMPVLDRQDEVHVQRVVFDKQSVQYRLPPITAKRLLILAGPNVLNSYDDSLKKFAIKNNVPVIADVLSQSLHTYTIHGIDVLLQAHKINADLKPDLVVRFGKTPVSARVLQWLKEENILTWHVGEDAGVDHTRHIVRAIKMAPHDFLESMHLTLSKNQIDFNQKWLSLPKVIKTRNEMNIITALDDAVPDDTHIFVANSMPIRDMDNFFTGNHTQRIYANRGANGIDGVISSALGMSAVAKQRSVLLTGDLTLFHDMNGLMMAKNYQLPLDIIVINNNGGGIFSFLPQAGAPKYFEQQFGTPLNIDIKKIADLYYIDYHQLNVPEALSQILQTPSKTTRLIEYKSDHQRNRDDHREVLEMLK", "values": [{"measurement": "Average Specific Activity", "setting": "[1]", "value": 0.0121, "unit": "units/mg"}, {"measurement": "Fold Increase in oxaloacetate alpha-decarboxylase specific activity", "setting": "[1]", "value": 1.6, "unit": "fold"}]}
{"molecule": "Mutant Oad 3: variant of Leuconostoc mesenteroides oad with mutations R394C, D434G and T511A (protein, Leuconostoc mesenteroides, variant of Leuconostoc mesenteroides oad with mutations R394C, D434G and T511A) MTDTLTFNTKHLLEALFESGIRHFIVSPGSRSTPIALLLAEYAEQNNEIKLFVDVDERSAGFFALGIAKTLLEPVVLLGTSGTAIAEYMPAVAEAYAANIPLVVLSTDRPQELQFNGAPQTIPQSNLFGQLTKQAVLIRLQDMHSDVTEYIDFIVQKVVNLSITAPRGPIQINLPLRKPLMPVLDRQDEVHVQRVVFDKQSVQYRLPPITAKRLLILAGPNVLNSYDDSLKKFAIKNNVPVIADVLSQSRHTYTIHGIDVLLQAHKINADLKPDLVVRFGKTPVSARVLQWLKEENILTWHVDEDAGVDHTRHIVRAIKMAPHDFLESMHLTLSKNQIDFNQKWLSLPKVIKTRNEMNIITALDDAVPDDTHIFVANSMPIRDMDNFFTGNHTQCIYANRGANGIDGVISSALGMSAVVKQRSVLLTGDLTLFHGMNGLMMAKNYQLPLDIIVINNNGGGIFSFLPQAGAPKYFEQLFGTPLNIDIKKIADLYYIDYHQLNVPEALSQILQAPSKTTRLIEYKSDHQRNRDDHREVLEMLK", "values": [{"measurement": "Average Specific Activity", "setting": "[1]", "value": 0.0222, "unit": "units/mg"}, {"measurement": "Fold Increase in oxaloacetate alpha-decarboxylase specific activity", "setting": "[1]", "value": 2.8, "unit": "fold"}]}
{"molecule": "Mutant Oad 2: variant of Leuconostoc mesenteroides oad with mutation T479N (protein, Leuconostoc mesenteroides, variant of Leuconostoc mesenteroides oad with mutation T479N) MTDTLTFNTKHLLEALFESGIRHFIVSPGSRSTPIALLLAEYAEQNNEIKLFVDVDERSAGFFALGIAKTLLEPVVLLGTSGTAIAEYMPAVAEAYAANIPLVVLSTDRPQELQFNGAPQTIPQSNLFGQLTKQAVLIRLQDMHSDVTEYIDFIVQKVVNLSITAPRGPIQINLPLRKPLMPVLDRQDEVHVQRVVFDKQSVQYRLPPITAKRLLILAGPNVLNSYDDSLKKFAIKNNVPVIADVLSQSRHTYTIHGIDVLLQAHKINADLKPDLVVRFGKTPVSARVLQWLKEENILTWHVDEDAGVDHTRHIVRAIKMAPHDFLESMHLTLSKNQIDFNQKWLSLPKVIKTRNEMNIITALDDAVPDDTHIFVANSMPIRDMDNFFTGNHTQRIYANRGANGIDGVISSALGMSAVVKQRSVLLTGDLTLFHDMNGLMMAKNYQLPLDIIVINNNGGGIFSFLPQAGAPKYFEQLFGNPLNIDIKKIADLYYIDYHQLNVPEALSQILQTPSKTTRLIEYKSDHQRNRDDHREVLEMLK", "values": [{"measurement": "Average Specific Activity", "setting": "[1]", "value": 0.0173, "unit": "units/mg"}, {"measurement": "Fold Increase in oxaloacetate alpha-decarboxylase specific activity", "setting": "[1]", "value": 2.2, "unit": "fold"}]}
{"molecule": "KGD: alpha-ketoglutarate decarboxylase (kgd) from Mycobacterium tuberculosis, penta-histidine tag, purified (protein, listed as Mycobacterium tuberculosis, penta-histidine tag, alpha-ketoglutarate decarboxylase (kgd) from Mycobacterium tuberculosis, penta-histidine tag, purified) MNLRGTAARRRHRATGDTLDARQLVRQQLRQLQTETRPGALVRWFLLDPKELFDIFVTIQGFTQTTTRQRRQLLQTHNCQIITVVFRLACRQFIIQLTGGQQNTANFIAVADTILVGRFLQDATEFNLGKILNLRNRRLVAQHGFRGKHDQRTLDAVQRVAAQQVKVIGRGARHRDRHATLSPQLQKALNARRRVVRALTLVAVWQQQNNVGQLTPFRFARADELVNDRLGTINKVAELRLPQHNRVWIANGITVLKTHSRVFRQRRIINQELTTGRAAVAVSRQQLQRGELLAGVTVDQHRMTLAKGATTRVLTAQTDQLALSNQAAQRQQLTKRPVNLTLIRHLTTLFQHRLNARVCRETVRQRQEGITDTCQQGFVNSGRQARWDHLVRLDALRRLDAVLLQFAHFVEHTLQLALVIAQRILRLFHADVATTDQSLGVGFTGATLGVHDVIDIRIGHRWIVTLIMTTTTIAQHVNNNVLFKALAEVNCQTRNPDTRFWIVAVHVEDWRTDHLRHIRAVLARTRVFRSGGEADLVVHNDVNRTTHTIARQICQIQRLRNNALTREGRITVQHQRNDGECTLAVGVNGTVVQQVLLRTHQTFQHWIDRFQMGRICRQGNLNIVIAKHLQIQTRRTQVVLDIAGTVSLGRVQIAFKLRKDLRIRFAHDVRQDIQATTVRHANDHFIQTMLGTLVNRRVHHWNNRFRTLQAKTLLAHILGLQEGFKRLRCVQFRQDVLLLSNGRFDVLRLDTLLQPLLLFRVQNVRVLNTDVTAVRVAQQTQHVTQLFVLSTRETVNLKDAVQVPQSQAMRQHLQIRMRTKARLIQAQRVGVRHQMAAVAIGRDQVHHTCVLVNDRVRIIGAPTHWQVRDAQLAEDLIPEAIRQQQFMNGTQEVTAFRTLNDTVVVGRSQGNQFANTQLSDAFLGRALELRRIFHRTDTDDSTLTWHQAWHRVHRANRARIRQRNRNASEVLGGQFTITSTTDDVLVRGNELREAHRLATFDTGHHQRALAIFTLQVNSQTQIGVRRSNRRRLTVHLRVVAIHIRELLNRLNQSITQQMGKADFTTTRAFQLIIDHDTIIDQQFRWHSTHRGRRRHFQRRAHVLHDSSRRTTQDSNFIAFGWRRHRGLGGQSRHDTVARCGRVGRFRRRLRSRRCRTLSDQRAGHTSRLSSRLGSRLRAIVHQKLMPAWVNGRRIITKFTIHTNTRRVLSHHGYISFLKNSISQRQGRHKIYSKCIINTDNIL", "values": [{"measurement": "Final [3HP]", "setting": "[2]; Beginning [OAA] 5 mM, pH 6.8", "value": "0.004 ± 0.001", "unit": "g/L"}, {"measurement": "3-HP production confirmed by GC-MS", "setting": "[2]; in the presence of 5 mM oxaloacetate", "value": "3-HP was produced"}, {"measurement": "pH of optimal activity", "setting": "[3]", "value": 6.8}]}
